Experimental findings from patent US9205136B2, “Human aminoacyl-tRNA synthetase polypeptides useful for the regulation of angiogenesis” (THE SCRIPPS RESEARCH INSTITUTE, priority 2000, dated 2015) are described below.

Sequences and labels used below:
B1: mini TrpRS: truncated TrpRS, residues 48-471 of full-length TrpRS (protein)
chain: MSYKAAAGEDYKADCPPGNPAPTSNHGPDATEAEEDFVDPWTVQTSSAKGIDYDKLIVRFGSSKIDKELINRIERATGQRPHHFLRRGIFFSHRDMNQVLDAYENKKPFYLYTGRGPSSEAMHVGHLIPFIFTKWLQDVFNVPLVIQMTDDEKYLWKDLTLDQAYGDAVENAKDIIACGFDINKTFIFSDLDYMGMSSGFYKNVVKIQKHVTFNQVKGIFGFTDSDCIGKISFPAIQAAPSFSNSFPQIFRDRTDIQCLIPCAIDQDPYFRMTRDVAPRIGYPKPALLHSTFFPALQGAQTKMSASDPNSSIFLTDTAKQIKTKVNKHAFSGGRDTIEEHRQFGGNCDVDVSFMYLTFFLEDDDKLEQIRKDYTSGAMLTGELKKALIEVLQPLIAEHQARRKEVTDEIVKEFMTPRKLSFDFQKLAAALEHHHHHH
modifications: His6 tag; Human mini TrpRS in pET20B
notes: truncated TrpRS, residues 48-471 of full-length TrpRS
B2: full-length TrpRS: recombinant human tryptophanyl-tRNA synthetase, 471 amino acid residues (protein)
chain: MPNSEPASLLELFNSIATQGELVRSLKAGNASKDEIDSAVKMLVSLKMSYKAAAGEDYKADCPPGNPAPTSNHGPDATEAEEDFVDPWTVQTSSAKGIDYDKLIVRFGSSKIDKELINRIERATGQRPHHFLRRGIFFSHRDMNQVLDAYENKKPFYLYTGRGPSSEAMHVGHLIPFIFTKWLQDVFNVPLVIQMTDDEKYLWKDLTLDQAYGDAVENAKDIIACGFDINKTFIFSDLDYMGMSSGFYKNVVKIQKHVTFNQVKGIFGFTDSDCIGKISFPAIQAAPSFSNSFPQIFRDRTDIQCLIPCAIDQDPYFRMTRDVAPRIGYPKPALLHSTFFPALQGAQTKMSASDPNSSIFLTDTAKQIKTKVNKHAFSGGRDTIEEHRQFGGNCDVDVSFMYLTFFLEDDDKLEQIRKDYTSGAMLTGELKKALIEVLQPLIAEHQARRKEVTDEIVKEFMTPRKLSFDFQKLAAALEHHHHHH
modifications: His6 tag; Human full-length TrpRS in pET20B
notes: recombinant human tryptophanyl-tRNA synthetase, 471 amino acid residues
B3: inactive TrpRS: minor PMN elastase fragment of TrpRS, amino-terminal residue at position 94 of full-length TrpRS (protein)
chain: MSAKGIDYDKLIVRFGSSKIDKELINRIERATGQRPHHFLRRGIFFSHRDMNQVLDAYENKKPFYLYTGRGPSSEAMHVGHLIPFIFTKWLQDVFNVPLVIQMTDDEKYLWKDLTLDQAYGDAVENAKDIIACGFDINKTFIFSDLDYMGMSSGFYKNVVKIQKHVTFNQVKGIFGFTDSDCIGKISFPAIQAAPSFSNSFPQIFRDRTDIQCLIPCAIDQDPYFRMTRDVAPRIGYPKPALLHSTFFPALQGAQTKMSASDPNSSIFLTDTAKQIKTKVNKHAFSGGRDTIEEHRQFGGNCDVDVSFMYLTFFLEDDDKLEQIRKDYTSGAMLTGELKKALIEVLQPLIAEHQARRKEVTDEIVKEFMTPRKLSFDFQKLAAALEHHHHHH
modifications: His6 tag; Human inactive TrpRS in pET20B
notes: minor PMN elastase fragment of TrpRS, amino-terminal residue at position 94 of full-length TrpRS
B4: supermini TrpRS: residues 71-471 of full-length TrpRS, major PMN elastase fragment (protein)
chain: MSNHGPDATEAEEDFVDPWTVQTSSAKGIDYDKLIVRFGSSKIDKELINRIERATGQRPHHFLRRGIFFSHRDMNQVLDAYENKKPFYLYTGRGPSSEAMHVGHLIPFIFTKWLQDVFNVPLVIQMTDDEKYLWKDLTLDQAYGDAVENAKDIIACGFDINKTFIFSDLDYMGMSSGFYKNVVKIQKHVTFNQVKGIFGFTDSDCIGKISFPAIQAAPSFSNSFPQIFRDRTDIQCLIPCAIDQDPYFRMTRDVAPRIGYPKPALLHSTFFPALQGAQTKMSASDPNSSIFLTDTAKQIKTKVNKHAFSGGRDTIEEHRQFGGNCDVDVSFMYLTFFLEDDDKLEQIRKDYTSGAMLTGELKKALIEVLQPLIAEHQARRKEVTDEIVKEFMTPRKLSFDFQKLAAALEHHHHHH
modifications: His6 tag; Human supermini TrpRS in pET20B
notes: residues 71-471 of full-length TrpRS, major PMN elastase fragment

The first experiment has as its system HUVEC. Nature of the experiment: Inhibition of VEGF165-induced or mini TyrRS-induced HUVEC migration. It is filed as cell-based, human. Conditions: 500 nM TrpRS, 0.5 nM VEGF165. The procedure: Cell migration assays were performed using the modified Boyden chamber (6.5 mm Transwells) with polycarbonate membranes (8.0 μm pore size) (Costar Corp., Cambridge, Mass.) (Masood et al., 1999, Blood 93:1038-44). Wells were coated overnight with 25 μg/mL human fibronectin (Biosource International, Camarillo, Calif.) in PBS and then allowed to air-dry. HUVECs were suspended in Dulbecco's modified Eagle's medium (DMEM) (Gibco-BRL, Gaithersburg, Md.) containing 0.1% BSA (Sigma) and 2×10^5 cells per well were added to the upper chamber. The chemotactic stimulus (50 nM of a given TyrRS molecule or 0.5 nM of human vascular endothelial growth factor-165 (VEGF165) (Biosource International, Camarillo, Calif.)) was placed in the lower chamber, and the cells were allowed to migrate for 6 hours at 37° C. in a 6% CO2 incubator. After incubation, non-migrant cells were removed from the upper face of the Transwell membrane with a cotton swab and migrant cells, those attached to the lower face, were fixed in methanol and visualized with the HEMACOLOR® stain set (EM Diagnostic Systems, Gibbstown, N.J.). Migrating cells were counted in high-power fields (HPFs). HUVECs were suspended in media with the inhibitor for 30 minutes before placement in the chamber. Each determination shown in FIG. 16 represents the average of nine HPF measurements.
The angiostatic activity of TrpRS was next evaluated in experiments testing the ability of human full-length TrpRS and human mini TrpRS to inhibit human VEGF165-induced or human mini TyrRS-induced cell migration. Cell migration assays were performed as described in Example 11 with full-length TrpRS or mini TrpRS added to VEGF165-induced or mini TyrRS-induced HUVEC samples. HUVEC samples were treated with 0.5 nM VEGF165, 50 nM mini TyrRS, and 500 nM of a given TrpRS. Four measurements of chemotaxis were done for each protein. Each determination shown in FIG. 19 represents the average of nine HPF measurements. […] In contrast, human full-length TrpRS had no effect on VEGF165-induced or mini TyrRS-induced HUVEC chemotaxis.
Turning to B1, the “inhibition of VEGF165-induced HUVEC chemotaxis” value is on record as “inhibited”.
On the same count and under the same terms, next, B2: “had no effect”.

Still in this experiment, the particulars now being: 500 nM TrpRS, 50 nM mini TyrRS.
Regarding B1, the “inhibition of mini TyrRS-induced HUVEC chemotaxis” value is listed as “inhibited”.
On to B2, for which the “inhibition of mini TyrRS-induced HUVEC chemotaxis” value is “had no effect”.

Still in this experiment, the particulars now being: as described in Example 14, inducer not stated.
Take B3: the “inhibition of HUVEC migration” value was “did not exhibit angiostatic activity”.
For B4, the “inhibition of HUVEC migration” value is “capable of inhibiting HUVEC proliferation and migration”.

The subject of the next experiment is chick CAM. The experiment can be described thus: Inhibition of VEGF165-induced or mini TyrRS-induced angiogenesis in chick CAM. Type of experiment: in vivo. The conditions noted are these: 3 μg inhibitor, 25 ng VEGF165, 72 hours. The procedure:
In vivo angiogenesis assays were conducted in chick chorioallantoic membrane (CAM) (Nicolaou et al., 1998, Bioorg. Med. Chem. 6:1185-208). Ten-day-old chick embryos were purchased from Mcintyre Poultry (Lakeside, Calif.) and were incubated at 37° C. and 70% humidity. A small hole was made with a small crafts drill (Dremel, Emerson Electric, Racine, Wis.) directly over the air sac at the end of the egg. The embryos were candled to determine a location to drill a second hole directly over embryonic blood vessels. […] A window was cut in the eggshell over the dropped CAM, exposing the CAM to direct access for experimental manipulation. Cortisone acetate-treated 5 mm filter disks were soaked with a particular protein sample (25 ng of VEGF165 or 250 ng of a given TyrRS molecule) and the filter disks added directly to the CAMs, which were relatively devoid of preexisting blood vessels. The windows were sealed with sterile tape and incubated at 37° C. At 0, 24, and 48 hours following incubation, 3 μg of […] (IP-10) (R & D Systems, Minneapolis, Minn.) was topically applied to the filter disks. After 72 hours, the CAM tissue associated with the filter disk was harvested and quantified using a stereomicroscope. Angiogenesis was assessed as the number of visible blood vessel branch points within the defined area of the filter disks. Each determination shown in FIG. 17 represents the mean from 5-8 embryos.
The angiostatic activity of human full-length TrpRS and human mini TrpRS was also analyzed in in vivo angiogenesis assays conducted in chick CAM. In vivo angiogenesis assays were performed as described in Example 12 with 3 μg of full-length TrpRS or mini TrpRS added to VEGF165-induced or mini TyrRS-induced CAM tissue.
Consider B1, for which the “inhibition of VEGF165-induced angiogenesis in chick CAM” value was “inhibited”.
For B3, the “inhibition of VEGF165-induced angiogenesis in chick CAM” value was “did not exhibit angiostatic activity”.
As for B4, the “inhibition of VEGF165-induced angiogenesis in chick CAM” value is listed as “capable of inhibiting”.
The same measure, in the same setting: in the case of B2 it was “no observable angiostatic activity”.

Staying with this experiment, now noted: 3 μg inhibitor, 250 ng mini TyrRS, 72 hours.
For B1, the “inhibition of mini TyrRS-induced angiogenesis in chick CAM” value is “inhibited”.
On the same count and under the same terms, in the case of B3 it was “did not exhibit angiostatic activity”; in that of B4, “capable of inhibiting”.
Still for that read-out and setting: next, B2: “no observable angiostatic activity”.

The next experiment relates to HUVEC. Nature of the experiment: Inhibition of VEGF165-induced cell proliferation. Type of experiment: cell-based, human. The conditions noted are these: 2 μM TrpRS, 2 nM VEGF165, 72 hours. As to the method: The angiostatic activity of TrpRS was first evaluated in experiments testing the ability of human full-length TrpRS and human mini TrpRS to inhibit human VEGF165-induced cell proliferation. Tissue culture-treated 96-well plates (Corning Costar Corp., Cambridge, Mass.) were coated with 0.1% gelatin (Sigma) overnight. Cells were then seeded in the gelatinized plates at a density of 5×10^3 cells per well in DMEM medium (Gibco-BRL) containing heat-inactivated fetal bovine serum (FBS) (10%, Sigma) and penicillin/streptomycin (100 units/mL-100 μg/mL, Sigma). The following day, the cells were treated with 2 μM of a given TrpRS in the presence of 2 nM VEGF165. After 72 hours of incubation, assays were performed by using the […] 96® aqueous one-solution cell proliferation assay kit (Promega, Madison, Wis.). Results of the inhibition assay are shown in FIG. 18 as the percentage of net proliferation of VEGF165. Each determination shown represents the mean of five experiments.
Turning to B1, the “inhibition of VEGF165-induced cell proliferation” value was “able to inhibit human VEGF165-induced cell proliferation”.
On to B3, for which the “inhibition of VEGF165-induced cell proliferation” value is “did not exhibit angiostatic activity”.
Same read-out and setting: in the case of B4 it was “capable of inhibiting HUVEC proliferation and migration”.
For B2, the “inhibition of VEGF165-induced cell proliferation” value is recorded as “exhibited no angiostatic activity”.
